Data: patent US6034062A, “Bone morphogenetic protein (BMP)-9 compositions and their uses” (Genetics Institute, Inc., priority 1997, dated 2000)
Read-outs that look alike come from different tables or passages of the source.

Columns and labels:
[1] = test system: Chang; test: 125I-BMP-9 binding to Chang liver cell line; settings: iodinated CHO-derived BMP-9
Procedure: (§1) BMP-9 responsiveness in parenchymal liver cells is tested by screening four liver cell lines for their ability to bind iodinated, CHO-derived BMP-9. […] Specific binding of BMP-9 to HepG2 cells is carried out by incubating HepG2 cells grown to confluence in Dulbecco's Modified Eagle's Medium (DME) containing 10% heat-inactivated fetal calf serum (FCS) on gelatinized 6 well plates with 2 ng/ml ^125 I-BMP-9 and increasing concentrations of unlabelled BMP-9 in binding buffer (136.9 mM NaCl, 5.37 mM KCl, 1.26 mM CaCl2, 0.64 mM MgSO4, 0.34 mM Na2 HPO4, 0.44 mM KH2 PO4, 0.49 mM MgCl2, 25 mM HEPES and 0.5% BSA, pH 7.4) for 20 hours at 4° C. to achieve binding equilibrium. This incubation follows a one hour preincubation at 37° C. in binding buffer alone. For crosslinking experiments, the cells were incubated with 500 μM disuccinimidyl suberate for 20 minutes at […] following binding. Cell extracts were analyzed on SDS-PAGE. […] The curvilinear nature of the Scatchard plot indicates negative cooperativity among BMP-9 receptors or that HepG2 cells express at least two populations of BMP-9 receptors with different affinities. Crosslinking analysis on HepG2 cells with ^125 I-BMP-9 yields two binding proteins of apparent molecular weights of 54 and 80 kD. […]

[2] = test system: WI-38 cells; test: Cell proliferation, [3H]thymidine incorporation, WI-38; type: cell-based; settings: high doses of rhBMP-9, 24 h
Procedure: Several cell lines are tested for BMP-9 responsiveness in vitro. Cell proliferation, as indicated by [^3 H]thymidine incorporation, is determined in cell lines derived from kidney and lung. Cell proliferation is determined by measuring [^3 H]thymidine incorporation in subconfluent cells treated for 24 h with or without growth factors. NRK-52E (ATCC CRL 1571), WI-38 (ATCC CCL-75), CCD-11Lu (ATCC CCL-202), CCD-16Lu (ATCC CCL-204), and A-549 (ATCC CCL-185) cell lines are placed at 10^4 cells/well in 96 well plates and assayed for [^3 H]thymidine incorporation as described above. IMCD-3 cells (ATCC #CRL-2123) are cultured in a collagen matrix as described by Barros et al., PNAS USA 92:4412-4416 (1995), and treated with growth factors for 6 days to allow tubule formation.

[3] = test system: NCTC1469; test: 125I-BMP-9 binding to NCTC1469 liver cell line; settings: iodinated CHO-derived BMP-9
Procedure: as §1

[4] = test system: BMP-9 receptors expressed on HepG2 cells; test: 125I-BMP-9 binding to HepG2 cells
Procedure: BMP-9 responsiveness in parenchymal liver cells is tested by screening four liver cell lines for their ability to bind iodinated, CHO-derived BMP-9. […] Specific binding of BMP-9 to HepG2 cells is carried out by incubating HepG2 cells grown to confluence in Dulbecco's Modified Eagle's Medium (DME) containing 10% heat-inactivated fetal calf serum (FCS) on gelatinized 6 well plates with 2 ng/ml ^125 I-BMP-9 and increasing concentrations of unlabelled BMP-9 in binding buffer (136.9 mM NaCl, 5.37 mM KCl, 1.26 mM CaCl2, 0.64 mM MgSO4, 0.34 mM Na2 HPO4, 0.44 mM KH2 PO4, 0.49 mM MgCl2, 25 mM HEPES and 0.5% BSA, pH 7.4) for 20 hours at 4° C. to achieve binding equilibrium. This incubation follows a one hour preincubation at 37° C. in binding buffer alone. For crosslinking experiments, the cells were incubated with 500 μM disuccinimidyl suberate for 20 minutes at […] following binding. Cell extracts were analyzed on SDS-PAGE. […] To test the binding specificity of the receptors for BMP-9, HepG2 cells were incubated with ^125 I-BMP-9 and a 250-fold excess of different unlabeled ligands.

[5] = test system: NMuli; test: 125I-BMP-9 binding to NMuli liver cell line; settings: iodinated CHO-derived BMP-9
Procedure: as §1

B1: BMP-9: recombinant human bone morphogenetic protein-9, mature amino acids #1-#110 of SEQ ID NO:9, expressed in CHO cells (protein)
chain: TRECSRSCPRTAPQRQVRAVTRRTRMAHVAAGSTLARRKRSAGAGSHCQKTSLRVNFEDIGWDSWIIAPKEYEAYECKGGCFFPLADDVTPTKHAIVQTLVHLKFPTKVG
modifications: 125I-iodinated as tracer; unlabelled BMP-9 used as the displacing ligand
- specific binding of 125I-BMP-9 [1]: to some extent
- cell proliferation ([3H]thymidine incorporation) [2]: statistically significant stimulation
- specific binding of 125I-BMP-9 [3]: highest degree of binding
- Kd ([4]; HepG2 cells, Scatchard analysis, 20 hours at 4° C., read-out: Kd of high affinity receptors): 300 pM
- Kd ([4]; HepG2 cells, estimated, read-out: Kd of the high affinity binding sites): ~270 pM
- Kd (estimated binding affinity) expressed ([4]; HepG2 cells, printed as Kd =0.3 nM=8 ng/ml): 8 ng/mL
- specific binding of 125I-BMP-9 ([4]; HepG2 liver cell line, iodinated CHO-derived BMP-9): highest degree of binding
- specific binding of 125I-BMP-9 [5]: to some extent
